Measured values: US20230067960A1 (VONSUN PHARMATECH, published 2023)
Non-standard residues stand in square brackets, D forms with d. No end group written: not given here. R1 = not defined here; R2 = not defined here; Aib = CC(C)(N)C(=O)O

T1: gastric inhibitory peptide receptor
T1 sequence (P48546 whole entry, species assumed, looked up): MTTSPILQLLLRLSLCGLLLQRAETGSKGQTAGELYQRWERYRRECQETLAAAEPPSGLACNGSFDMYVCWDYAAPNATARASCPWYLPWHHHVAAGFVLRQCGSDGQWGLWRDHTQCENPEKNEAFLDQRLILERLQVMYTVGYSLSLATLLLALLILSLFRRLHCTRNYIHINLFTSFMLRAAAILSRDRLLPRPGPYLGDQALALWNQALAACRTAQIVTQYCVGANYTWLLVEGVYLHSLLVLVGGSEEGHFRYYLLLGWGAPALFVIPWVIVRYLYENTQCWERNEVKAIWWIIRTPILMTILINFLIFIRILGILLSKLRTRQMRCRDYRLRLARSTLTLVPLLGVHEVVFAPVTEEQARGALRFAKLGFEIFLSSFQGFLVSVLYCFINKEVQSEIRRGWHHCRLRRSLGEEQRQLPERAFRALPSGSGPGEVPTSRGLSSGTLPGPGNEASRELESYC


Experiments:
Assay in all cases: cell-based or functional assay
[1] = target: glucagon-like peptide-1 receptor
glucagon receptor = target: glucagon receptor
[2] = target: T1, gastric inhibitory peptide receptor

Binder | In vitro activity relative to native polypeptide (%), relative to GLP-1 (cAMP HTRF, from EC50) [1] | In vitro activity relative to native polypeptide (%), relative to GCG (cAMP HTRF, from EC50) (glucagon receptor) | In vitro activity relative to native polypeptide (%), relative to GIP (cAMP HTRF, from EC50) [2]
H[Aib]QGTFTSDLSLAQEKEAVRLFIEWLREGGPSSGAPPPS (ends and bridges not checked) [triple agonist peptide of SEQ ID NO: 8] | 123% | 1.21% | 2.02%
H[Aib]QGTFTSDLSLEQEKIAVRLFIEWLREGGPSSGAPPPS (ends and bridges not checked) [triple agonist peptide of SEQ ID NO: 9] | 136% | 20.1% | 95.8%
H[Aib]QGTFTSDLSRAMEK(R1)IAVRLFIEWLIEGGPSSGAPPPS-NH2 (reading uncertain) [triple agonist peptide of SEQ ID NO: 11, chemically modified with R1 side chain] | 191% | 3.89% | 2.53%
H[Aib]QGTFTSDLSRAMEKEAVRLFIEWLREGGPSSGAPPPS (ends and bridges not checked) [triple agonist peptide of SEQ ID NO: 2] | 104% | 25.1% | 34%
H[Aib]QGTFTSDLSRAMEKEAVRLFIEWLIDGGPSSGAPPPS (ends and bridges not checked) [triple agonist peptide of SEQ ID NO: 4] | 71.4% | 2.17% | 7.37%
H[Aib]QGTFTSDLSRAMEK(R2)IAVRLFIEWLIEGGPSSGAPPPS-NH2 (reading uncertain) [triple agonist peptide of SEQ ID NO: 13, chemically modified with R2 side chain] | 217% | 16.1% | 9.83%
H[Aib]QGTFTSDLSRALEK(R2)IAARLFIEWLIEGGPSSGAPPPS-NH2 (reading uncertain) [triple agonist peptide of SEQ ID NO: 14, chemically modified with R2 side chain] | 57% | 0.49% | 3.38%
H[Aib]QGTFTSDLSRYLEKEAVRLFIEWLIDGGPSSGAPPPS (ends and bridges not checked) [triple agonist peptide of SEQ ID NO: 10] | 71.6% | 21.8% | 94.7%
H[Aib]QGTFTSDLSRAMEKIAVRLFIEWLREGGPSSGAPPPS (ends and bridges not checked) [triple agonist peptide of SEQ ID NO: 1] | 64.7% | 1.33% | 3.99%
H[Aib]QGTFTSDLSRAMEKIAVRLFIEWLIEGGPSSGAPPPS (ends and bridges not checked) [triple agonist peptide of SEQ ID NO: 6] | 116% | 0.89% | 3.27%
H[Aib]QGTFTSDLSAAMEKIAVRLFIEWLREGGPSSGAPPPS (ends and bridges not checked) [triple agonist peptide of SEQ ID NO: 5] | 38.4% | 0.72% | 1.99%
H[Aib]QGTFTSDLSRALEKIAARLFIEWLIEGGPSSGAPPPS (ends and bridges not checked) [triple agonist peptide of SEQ ID NO: 7] | 47.5% | 18.3% | 5.74%
H[Aib]QGTFTSDLSRAMEKEAVRLFIEWLIEGGPSSGAPPPS (ends and bridges not checked) [triple agonist peptide of SEQ ID NO: 3] | 67.7% | 12.2% | 12.1%
